Assay results taken from PMC314469, “Protein Interaction Networks by Proteome Peptide Scanning” (PLoS Biology, 2004).

Assays:
Test in all cases: SPOT array
[1] = target: Sho1 SH3 (SHO1_YEAST), P40073
[2] = target: T1, Myo5 SH3 (MYO5_YEAST), Q04439
T1 chain: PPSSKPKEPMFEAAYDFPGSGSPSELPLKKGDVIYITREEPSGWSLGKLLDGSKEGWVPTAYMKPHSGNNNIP

[3] = target: T2, Rvs167 SH3 (RV167_YEAST), P39743
T2 chain: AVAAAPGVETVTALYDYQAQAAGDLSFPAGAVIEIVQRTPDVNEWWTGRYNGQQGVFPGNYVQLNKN

[4] = target: T3, Yfr024 SH3 (LSB3_YEAST), P43603
T3 chain: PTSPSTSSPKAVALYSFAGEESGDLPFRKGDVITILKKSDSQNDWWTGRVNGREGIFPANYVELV

[5] = target: T4, Boi2 SH3 (BOI2_YEAST), P39969
T4 chain: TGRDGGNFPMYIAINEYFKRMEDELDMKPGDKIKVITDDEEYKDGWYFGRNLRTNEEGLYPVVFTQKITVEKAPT

[6] = target: T5, Boi1 SH3 (BOI1_YEAST), P38041
T5 chain: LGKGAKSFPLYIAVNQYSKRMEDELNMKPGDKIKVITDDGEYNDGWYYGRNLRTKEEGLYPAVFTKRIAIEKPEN

[7] = target: T6, Yhr016c SH3 (YSC84_YEAST), P32793
T6 chain: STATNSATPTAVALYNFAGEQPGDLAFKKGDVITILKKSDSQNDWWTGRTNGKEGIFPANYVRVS

Chain of Sho1 SH3 (SHO1_YEAST), P40073 (P40073 295-366): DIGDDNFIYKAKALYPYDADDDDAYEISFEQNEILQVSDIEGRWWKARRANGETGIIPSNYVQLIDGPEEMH

Binder | normalised SPOT signal, Boehringer light units (BLU); mean over the file's lines of this peptide [1] | normalised SPOT signal, Boehringer light units (BLU); mean over the file's lines of this peptide [2] | normalised SPOT signal, Boehringer light units (BLU); mean over the file's lines of this peptide [3] | normalised SPOT signal, Boehringer light units (BLU); mean over the file's lines of this peptide [4] | normalised SPOT signal, Boehringer light units (BLU); mean over the file's lines of this peptide [5] | normalised SPOT signal, Boehringer light units (BLU); mean over the file's lines of this peptide [6] | normalised SPOT signal, Boehringer light units (BLU); mean over the file's lines of this peptide [7]
SLISKRNPSYPYGI [YEL050C 18-31] | 159 | 483 | 45.7 | 79.2 | 53.2 | 274 | 10.1
SSVSKLKPSLPNKL [YPL242C 73-86] | 30.7 | 418 | 176 | 1380 | 50.5 | 332 | 39.2
SLKNRDGPITPSTI [YPR128C 112-125] | 25.7 | 215 | 232 | 161 | 67.9 | 60.2 | 14.1
SKYAKLDPSTPVSL [YNL239W 287-300] | 32.6 | 457 | 42.2 | 26.4 | 39.1 | 101 | 48.5
SLTLKTLPRVPTDS [YDL197C 461-474] | 31400 | 212 | 163 | 188 | 28.1 | 75.5 | 28.2
SSKIRPTPRKPSRM [YER118C 4-17] | 144 | 673 | 7920 | 9730 | 58.4 | 982 | 697
SLIPKIEPAEPTYS [YNL224C 454-467] | 33.4 | 85.4 | 41.8 | 1 | 25.6 | 170 | 8.7
SRYLKDHPNLPTPE [YOR353C 203-216] | 94.1 | 69.2 | 104 | 99.8 | 0 | 208 | 23.3
SLLAKYQPSLPLVE [YDL179W 224-237] | 58.4 | 162 | 68.6 | 57.4 | 76.8 | 44.7 | 46.8
SQKKKALPKQPKAS [YDR028C 871-884] | 3210 | 493 | 186 | 307 | 29.5 | 1060 | 61.2
SMAMRPIPPLPTES [YNL152W 155-168] | 242 | 1330 | 32500 | 50600 | 49 | 37 | 46600
SLGERFMPMAPEVY [YBR017C 618-631] | 3.7 | 140 | 32.8 | 15.8 | 51.3 | 49.7 | 7.3
SNFKKRDPGLPDFQ [YPL083C 302-315] | 36.9 | 161 | 89.5 | 212 | 6.1 | 238 | 49.4
SMDSKRKPSPPSQR [YPL141C 758-771] | 89.1 | 510 | 371 | 824 | 110 | 1110 | 171
SRSKRSKPLPPQLL [YJL095W 840-853] | 1740 | 884 | 159 | 411 | 10.6 | 685 | 10.4
SRVTRKRPREPKST [YBL111C 334-347] | 95 | 829 | 162 | 674 | 40.5 | 794 | 49.5
